Source: patent US11207289B2, “Use of benzofuran lignans to induce IL-25 expression and suppress mammary tumor metastasis” (ACADEMIA SINICA, priority 2016, dated 2021)

B1: IL-25: human and mouse IL-25 recombinant protein (protein, UniProt Q9H293 33-177, looked up)
Interleukin-25: YSHWPSCCPSKGQDTSEELLRWSTVPVPPLEPARPNRHPESCRASEDGPLNSRAISPWRYELDRDLNRLPQDLYHARCLCPHCVSLQTGSHMDPRGNSELLYHNQTVFYRRPCHGEKGTHKGYCLERRLYRVSLACVCVRPRVMG
modifications: also mouse IL-25
notes: human and mouse IL-25 recombinant protein

What was measured:
[1] = tested on: IL-25; assay: IL-25 expression in lung fibroblasts, 4T1 tumor resection model (IF staining, flow cytometry); type: in vivo, mice
Procedure: BALB/c mice were subcutaneously injected with 4T1-Luc2 cells (5×10^5/100 μl PBS/mouse) into the fourth mammary fat pad under isoflurane anesthesia. Tumor growth was monitored by measuring the tumor volume according to the formula: volume=length×(width)^2/2. After tumors were established (180-200 mm^3) on day 14, test mice were divided into different groups (8 mice/group) and subjected to different treatments. At 15 days post tumor cell implantation, primary 4T1 tumors in situ were surgically removed by a tumor resection process. For drug treatment, mice were administered with different agents, including vehicle-control (PBS), mouse IL-25 protein (10 μg/kg, ProSpec, Vineland, N.J.), Q2-3 (2, 20 or 100 μg/kg) or docetaxel (2 mg/kg; Sigma-Aldrich), by intravenous injection for 3 weeks (3 injections/week) post tumor resection. For in vivo neutralization of mouse IL-25 activity, mice were treated intraperitoneally with either 100 μg anti-mouse IL-25 (IL-17E) antibody (clone 35B; Biolegend) or isotype control rat IgG (100 μg; rat, IgG1κ; Biolegend) at days 0, 3, 6, 9, 12, 15, 18 post tumor resection. To detect metastasis of human MDA-MD-231-Luc2 tumor cells, nude mice were injected subcutaneously with 5×10^5 MDA-MD-231-Luc2 cells into the mammary fat pad under isoflurane anesthesia. After tumors were established (250-350 mm^3) on day 24, test mice were divided into different groups (8 mice/group) and subjected to different treatments. At 25 days post tumor cell implantation, primary MDA-MD-231-Luc2 tumors in situ were surgically removed by a tumor resection process. For drug treatment, mice were administered with PBS (vehicle-control), Q2-3 (100 μg/kg), docetaxel (5 mg/kg) or Q2-3 (100 μg/kg)+docetaxel (5 mg/kg), by intravenous injection for 3 weeks (3 injections/week) post tumor resection. To monitor the progression of mouse (4T1) or human (MDA-MD-231) metastatic tumors, test mice treated with different drugs/agents were compared for their tumor metastatic activity and survival rate aftern another 8 weeks. Bioluminescence signals from the 4T1-luc2 tumor cells in test mice were analyzed using a non-invasive IVIS imaging system (Calipers, Hopkinton, Mass.) after intraperitoneal injection of 150 mg/kg D-luciferin (NanoLight technology, Pinetop, Ariz.).
Lung tissue specimens obtained from each tumor-resected mouse were fixed with 4% formalin and embedded in paraffin. For histological comparison, 6 μm-thick tissue sections were made and stained with hematoxylin and eosin (H&E). For immunofluorescence staining, fixed tissue sections were initially immersed in boiling sodium citrate buffer (0.01 M sodium citrate buffer, pH 6.0) for 30 min Lung tissue sections were blocked with 5% nonfat milk, and incubated with anti-FSP-1 antibody (1:200 dilution; Millipore), FITC-conjugated anti-CD206 antibody (1:200 dilution; Biolegend) or PE-conjugated anti-IL-25 antibody (1:100; R&D) in 1% nonfat milk for 1 hour at room temperature. Sections were then washed with PBS containing 0.1% Tween 20. To detect primary antibodies, some sections were incubated with FITC-conjugated anti-mouse-IgG (1:200; Jackson Immunoresearch, West Grove, Pa.) for FSP-1. 4′,6-Diamidino-2-phenylindole dihydrochloride (1 μg/ml; Sigma-Aldrich) was used to stain the nuclei. Fluorescence microscopy evaluation of immunostained tissue sections was performed using a Zeiss Axiovert 200 M microscope (Carl Zeiss, Heidelberg, Germany) Images were captured with a digital camera (Orca ER, Hamamatsu) and processed using Axiovision 4.6.3 (Carl Zeiss).
For detection of myeloid derived suppressor cells (MDSCs), cells from mouse lung tissue in each group were collected and stained for 30 min at 4° C. with antibodies against specific cell markers, including FITC-conjugated anti-mouse CD11b (for cell surface), APC-Cy7 conjugated anti-mouse Ly-6C and PE conjugated anti-mouse Ly-6G, (both for intracellular staining). All three antibodies were obtained from Biolegend, (San Diego, Calif.). […]

[2] = tested on: MDA-MB-231 cells; assay: MTT growth activity of MDA-MB-231 cells in fibroblast conditioned media; type: cell-based, human; conditions: MTT at 5 days; media applied every 24 hours; IL-25 protein 100 ng/ml
Procedure: (§1) M10, WI38, SKBR3, and MDA-MB-231 cells (1×10^5 cells/ml) dispensed in 96-well plates were incubated with vehicle or test compounds (Q2-3) for 24 h or 72 h in corresponding basal medium in a 5% CO2 incubator. To evaluate the effect of secreted IL-25 from Q2-3-treated fibroblasts on growth activity of mammary tumor cells, 4T1 and MDA-MB-231 cells (1×10^4 cells/ml) dispensed in 96-well plates were incubated with control medium or different fibroblast conditioned media (200 μl/ml) which was changed daily for 5 days. All treatments were performed in triplicate cell cultures. The growth activity of cells was assayed using a 3-(4, 5-dimethythiazol-2-yl)-2, 5-diphenyl tetrazolium bromide (MTT; Sigma-Aldrich) colorimetric method. The absorbance at 570 nm (A570) was measured using a multiwall scanning spectrophotometer.
(§2) To pull down and deplete IL-25 protein molecules in 3T3 or MDA-MB-231 cell conditioned media, the Dynabeads antibody coupling kit (Life Technology; 14311D) was used according to the manufacturer's recommendations, yielding 10 mg/ml anti-IL25 antibody (ProteinTech, Chicago, Ill.)-coupled beads. The rabbit IgG (ProteinTech, Chicago, Ill.) was used as an isotype control antibody. […] The antibody-pulled down proteins from 3T3-CM, NHDF-CM or WI38-CM, were detected for the content of secreted IL-25 protein in each conditioned medium using western blot analysis. […]

[3] = tested on: caspases 8 and 3; assay: Western blot of cleavage of caspases 8 and 3 in MDA-MB-231 cells; type: cell-based, human
Procedure: MDA-MB231 and MCF-7 cells were seeded in 6-well plate at 10^5 cells/well for 24 h before transfection. siRNAs used for knockdown of human IL-25 receptor (IL25-RB) were purchased from Biotools (Taiwan, ROC) as follows: IL-17RB-homo-448 (IL-25R-1 siRNA); IL-17RB-homo-519 ([…]); IL-17RB-homo-956 ([…]); negative control (Neg). At the beginning of transfection, each test IL25R siRNA oligomers (100 pmol) was diluted in 250 μl Opti-MEM I Reduced Serum Medium. Aliquots of 5 μl Lipofectamine 2000 transfection reagent (Invitrogen) were diluted with 250 μl Opti-MEM I Reduced Serum Medium. Diluted oligomers were mixed gently with the diluted Lipofectamine 2000 and incubated for 20 min at room temperature. The oligomer-Lipofectamine 2000 complexes were subsequently added to each well containing cells and medium. Cells were incubated at 37° C. for 72 h until test cells were ready to be treated with IL25 cytokine or a different CM.
Cell lysates of 3T3, WI38, NHDF, MDA-MB-231, MCF-10A and MCF-7 or the IL-25-pulled down protein lysates from 3T3, WI38 or NHDF conditioned media were resolved by SDS PAGE using 8, 10 or 15% stepwise gels. […] Loading of equal amounts of protein was assessed using the mouse β-actin protein as a reference. […] Quantification of protein in luminescent bands was performed using ImageJ software. […]

[4] = tested on: 4T1 cells; assay: MTT growth activity of 4T1 cells in fibroblast conditioned media; type: cell-based, mouse; conditions: MTT at 5 days; media applied every 24 hours; IL-25 protein 100 ng/ml
Procedure: as §1, §2

| Molecule | total FSP-1+ER-TR7+ fibroblast population in lung ([1]; 3 weeks post tumor resection, PBS control 5.2%) | cell population of IL-25+ fibroblasts (FSP-1+ER-TR7+IL-25+ cells) in lung ([1]; 3 weeks post tumor resection, PBS control 16.7%) | IL-25 expression in lung fibroblasts (IF staining) ([1]; Q2-3 100 μg/kg, 21 days post tumor resection) | growth activity of MDA-MB-231 cells [2] | cleavage of caspases 8 and 3 ([3]; MDA-MB-231, IL-25 100 ng/ml, 24 h) | cleavage of caspases 8 and 3 in cells treated with IL-25R siRNA ([3]; MDA-MB-231 treated with IL-25R siRNA) | growth activity of 4T1 cells [4] |
| --- | --- | --- | --- | --- | --- | --- | --- |
| CC(=O)O[C@@]12CO[C@@H]1C[C@H](O)[C@@]1(C)C(=O)[C@H](O)C3=C(C)[C@@H](OC(=O)[C@H](O)[C@@H](NC(=O)OC(C)(C)C)c4ccccc4)C[C@@](O)([C@@H](OC(=O)c4ccccc4)[C@H]21)C3(C)C [DT, docetaxel, reference compound] | did not increase | did not increase | little or no IL-25 expression |  |  |  |  |
| B1 |  |  |  | decreased the growth activity | resulted in the cleavage of caspases 8 and 3 | not able to induce | decreased the growth activity |
